{"source": "paper PMC3870659", "molecular_target": "integrin α4β7 on freshly isolated human primary B cells (human (endogenous in primary B cells)) (UniProt P13612)", "sequence (P13612 34-1032, chain 1 of 2)": "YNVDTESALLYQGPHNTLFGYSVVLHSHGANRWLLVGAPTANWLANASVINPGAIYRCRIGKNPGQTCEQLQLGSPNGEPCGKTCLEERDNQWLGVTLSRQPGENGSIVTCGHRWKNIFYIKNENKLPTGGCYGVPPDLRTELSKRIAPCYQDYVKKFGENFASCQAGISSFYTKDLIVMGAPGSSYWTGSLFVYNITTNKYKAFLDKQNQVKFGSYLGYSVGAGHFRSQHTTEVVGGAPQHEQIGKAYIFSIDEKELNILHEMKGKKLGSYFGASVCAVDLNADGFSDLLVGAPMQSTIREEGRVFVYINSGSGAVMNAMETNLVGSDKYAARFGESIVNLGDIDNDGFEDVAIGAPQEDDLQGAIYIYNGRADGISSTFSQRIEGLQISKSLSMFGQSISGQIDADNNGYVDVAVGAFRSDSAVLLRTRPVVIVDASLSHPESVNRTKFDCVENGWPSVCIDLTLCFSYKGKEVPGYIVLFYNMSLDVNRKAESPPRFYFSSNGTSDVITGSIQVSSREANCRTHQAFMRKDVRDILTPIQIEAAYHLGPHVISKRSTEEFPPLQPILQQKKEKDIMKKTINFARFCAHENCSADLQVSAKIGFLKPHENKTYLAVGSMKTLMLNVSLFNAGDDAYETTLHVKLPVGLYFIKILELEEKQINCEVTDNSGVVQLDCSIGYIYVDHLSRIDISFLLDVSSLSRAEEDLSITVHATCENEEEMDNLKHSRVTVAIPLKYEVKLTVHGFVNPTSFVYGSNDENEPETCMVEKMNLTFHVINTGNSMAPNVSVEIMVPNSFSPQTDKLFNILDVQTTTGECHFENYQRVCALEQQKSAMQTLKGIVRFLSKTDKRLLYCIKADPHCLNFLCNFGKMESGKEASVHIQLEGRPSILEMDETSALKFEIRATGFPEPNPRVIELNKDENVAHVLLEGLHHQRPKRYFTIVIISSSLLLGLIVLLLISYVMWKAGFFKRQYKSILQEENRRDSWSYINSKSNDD", "sequence (P26010 20-798, chain 2 of 2, further chain)": "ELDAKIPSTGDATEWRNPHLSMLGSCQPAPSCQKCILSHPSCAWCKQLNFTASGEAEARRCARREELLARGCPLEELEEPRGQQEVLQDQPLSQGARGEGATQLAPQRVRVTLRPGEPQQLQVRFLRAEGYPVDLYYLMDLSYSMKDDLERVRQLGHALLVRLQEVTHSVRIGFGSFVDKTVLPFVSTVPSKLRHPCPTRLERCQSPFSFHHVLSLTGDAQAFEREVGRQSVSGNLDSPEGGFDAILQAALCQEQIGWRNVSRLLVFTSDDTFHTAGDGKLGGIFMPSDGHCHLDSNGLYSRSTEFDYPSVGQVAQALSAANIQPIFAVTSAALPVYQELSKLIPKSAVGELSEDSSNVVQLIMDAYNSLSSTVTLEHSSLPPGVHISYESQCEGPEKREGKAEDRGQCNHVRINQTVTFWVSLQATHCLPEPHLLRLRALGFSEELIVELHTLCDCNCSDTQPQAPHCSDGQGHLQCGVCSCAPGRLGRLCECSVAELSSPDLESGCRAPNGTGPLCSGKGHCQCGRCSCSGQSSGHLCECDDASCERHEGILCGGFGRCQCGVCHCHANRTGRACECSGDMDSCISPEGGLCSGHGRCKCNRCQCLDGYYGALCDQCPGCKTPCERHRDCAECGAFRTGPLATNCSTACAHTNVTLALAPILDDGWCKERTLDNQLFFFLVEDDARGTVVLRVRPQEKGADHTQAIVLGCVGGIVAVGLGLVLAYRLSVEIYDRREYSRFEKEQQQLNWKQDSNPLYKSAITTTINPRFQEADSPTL"}
{"substance": "R66M gp120 (HIV-1 envelope protein gp120 of the early viral isolate R66M, subtype A/C) (natural protein)", "values": [{"measurement": "FCRL4 mRNA (microarray) in anti-IgM + CpG stimulated B cells, 6 h with gp120", "result": 8, "unit": "fold"}]}
